B1: EPHA1: N414A (protein)
parent chain: MERRWPLGLGLVLLLCAPLPPGARAKEVTLMDTSKAQGELGWLLDPPKDGWSEQQQILNGTPLYMYQDCPMQGRRDTDHWLRSNWIYRGEEASRVHVELQFTVRDCKSFPGGAGPLGCKETFNLLYMESDQDVGIQLRRPLFQKVTTVAADQSFTIRDLVSGSVKLNVERCSLGRLTRRGLYLAFHNPGACVALVSVRVFYQRCPETLNGLAQFPDTLPGPAGLVEVAGTCLPHARASPRPSGAPRMHCSPDGEWLVPVGRCHCEPGYEEGGSGEACVACPSGSYRMDMDTPHCLTCPQQSTAESEGATICTCESGHYRAPGEGPQVACTGPPSAPRNLSFSASGTQLSLRWEPPADTGGRQDVRYSVRCSQCQGTAQDGGPCQPCGVGVHFSPGARGLTTPAVHVNGLEPYANYTFNVEAQNGVSGLGSSGHASTSVSISMGHAESLSGLSLRLVKKEPRQLELTWAGSRPRSPGANLTYELHVLNQDEERYQMVLEPRVLLTELQPDTTYIVRVRMLTPLGPGPFSPDHEFRTSPPVSRGLTGGEIVAVIFGLLLGAALLLGILVFRSRRAQRQRQQRQRDRATDVDREDKLWLKPYVDLQAYEDPAQGALDFTRELDPAWLMVDTVIGEGEFGEVYRGTLRLPSQDCKTVAIKTLKDTSPGGQWWNFLREATIMGQFSHPHILHLEGVVTKRKPIMIITEFMENGALDAFLREREDQLVPGQLVAMLQGIASGMNYLSNHNYVHRDLAARNILVNQNLCCKVSDFGLTRLLDDFDGTYETQGGKIPIRWTAPEAIAHRIFTTASDVWSFGIVMWEVLSFGDKPYGEMSNQEVMKSIEDGYRLPPPVDCPAPLYELMKNCWAYDRARRPHFQKLQAHLEQLLANPHSLRTIANFDPRMTLRLPSLSGSDGIPYRTVSEWLESIRMKRYILHFHSAGLDTMECVLELTAEDLTQMGITLPGHQKRILCSIQGFKD
B2: EPHA1: N414A-N478A (protein)
parent chain: MERRWPLGLGLVLLLCAPLPPGARAKEVTLMDTSKAQGELGWLLDPPKDGWSEQQQILNGTPLYMYQDCPMQGRRDTDHWLRSNWIYRGEEASRVHVELQFTVRDCKSFPGGAGPLGCKETFNLLYMESDQDVGIQLRRPLFQKVTTVAADQSFTIRDLVSGSVKLNVERCSLGRLTRRGLYLAFHNPGACVALVSVRVFYQRCPETLNGLAQFPDTLPGPAGLVEVAGTCLPHARASPRPSGAPRMHCSPDGEWLVPVGRCHCEPGYEEGGSGEACVACPSGSYRMDMDTPHCLTCPQQSTAESEGATICTCESGHYRAPGEGPQVACTGPPSAPRNLSFSASGTQLSLRWEPPADTGGRQDVRYSVRCSQCQGTAQDGGPCQPCGVGVHFSPGARGLTTPAVHVNGLEPYANYTFNVEAQNGVSGLGSSGHASTSVSISMGHAESLSGLSLRLVKKEPRQLELTWAGSRPRSPGANLTYELHVLNQDEERYQMVLEPRVLLTELQPDTTYIVRVRMLTPLGPGPFSPDHEFRTSPPVSRGLTGGEIVAVIFGLLLGAALLLGILVFRSRRAQRQRQQRQRDRATDVDREDKLWLKPYVDLQAYEDPAQGALDFTRELDPAWLMVDTVIGEGEFGEVYRGTLRLPSQDCKTVAIKTLKDTSPGGQWWNFLREATIMGQFSHPHILHLEGVVTKRKPIMIITEFMENGALDAFLREREDQLVPGQLVAMLQGIASGMNYLSNHNYVHRDLAARNILVNQNLCCKVSDFGLTRLLDDFDGTYETQGGKIPIRWTAPEAIAHRIFTTASDVWSFGIVMWEVLSFGDKPYGEMSNQEVMKSIEDGYRLPPPVDCPAPLYELMKNCWAYDRARRPHFQKLQAHLEQLLANPHSLRTIANFDPRMTLRLPSLSGSDGIPYRTVSEWLESIRMKRYILHFHSAGLDTMECVLELTAEDLTQMGITLPGHQKRILCSIQGFKD
B3: EPHA1: N478A (protein)
parent chain: MERRWPLGLGLVLLLCAPLPPGARAKEVTLMDTSKAQGELGWLLDPPKDGWSEQQQILNGTPLYMYQDCPMQGRRDTDHWLRSNWIYRGEEASRVHVELQFTVRDCKSFPGGAGPLGCKETFNLLYMESDQDVGIQLRRPLFQKVTTVAADQSFTIRDLVSGSVKLNVERCSLGRLTRRGLYLAFHNPGACVALVSVRVFYQRCPETLNGLAQFPDTLPGPAGLVEVAGTCLPHARASPRPSGAPRMHCSPDGEWLVPVGRCHCEPGYEEGGSGEACVACPSGSYRMDMDTPHCLTCPQQSTAESEGATICTCESGHYRAPGEGPQVACTGPPSAPRNLSFSASGTQLSLRWEPPADTGGRQDVRYSVRCSQCQGTAQDGGPCQPCGVGVHFSPGARGLTTPAVHVNGLEPYANYTFNVEAQNGVSGLGSSGHASTSVSISMGHAESLSGLSLRLVKKEPRQLELTWAGSRPRSPGANLTYELHVLNQDEERYQMVLEPRVLLTELQPDTTYIVRVRMLTPLGPGPFSPDHEFRTSPPVSRGLTGGEIVAVIFGLLLGAALLLGILVFRSRRAQRQRQQRQRDRATDVDREDKLWLKPYVDLQAYEDPAQGALDFTRELDPAWLMVDTVIGEGEFGEVYRGTLRLPSQDCKTVAIKTLKDTSPGGQWWNFLREATIMGQFSHPHILHLEGVVTKRKPIMIITEFMENGALDAFLREREDQLVPGQLVAMLQGIASGMNYLSNHNYVHRDLAARNILVNQNLCCKVSDFGLTRLLDDFDGTYETQGGKIPIRWTAPEAIAHRIFTTASDVWSFGIVMWEVLSFGDKPYGEMSNQEVMKSIEDGYRLPPPVDCPAPLYELMKNCWAYDRARRPHFQKLQAHLEQLLANPHSLRTIANFDPRMTLRLPSLSGSDGIPYRTVSEWLESIRMKRYILHFHSAGLDTMECVLELTAEDLTQMGITLPGHQKRILCSIQGFKD

experiment: cell surface biotinylation, streptavidin pull-down, EPHA1 immunoblot; details: glycan lost; control: wild type

localisation_or_trafficking, decreases:
B1
B2
B3
